Results from US20230218738A1 (Pfizer, published 2023).
Positions count from the first letter of the chain named.

B1: MPE8 (antibody, V domains shown)
VH: EVQLVESGGGLVKPGGSLRLSCAASGFTFSSYSMNWVRQAPGKGLEWVSSISASSSYSDYADSAKGRFTISRDNAKTSLFLQMNSLRAEDTAIYFCARARATGYSSITPYFDIWGQGTLVTVSS
VL: QSVVTQTPSVSGAPGQRVTISCTGSSSNIGAGYDVHWYQQLPGTAPKLLIYDNNNRPSGVPDRFSASKSGTSASLAITGLQAEDEADYYCQSYDRNLSGVFGTGTKVTVL
notes: also called MPEG
B2: AM22 (antibody, V domains shown)
VH: QVQLVQSGAEVKKPGATVKVSCKISGHTLIKLSIHWVRQAPGKGLEWMGGYEGEVDEIFYAQKFQHRLTVIADTATDTVYMELGRLTSDDTAVYFCGTLGVTVTEAGLGIDDYWGQGTLVTVSS
VL: EIVLTQSPGTLSLSPGERATLSCRASQIVSRNHLAWYQQKPGQAPRLLIFGASSRATGIPVRFSGSGSGTDFTLTINGLAPEDFAVYYCLSSDSSIFTFGPGTKVDFK

Tests used:
Assay in all cases: BLI (Octet), F on anti-HIS tip, 20 nM mAb
[1] = molecular target: T1, RSV F protein mutant pXCS880 (RSV A2, UniProt P03420 26-109)
T1 chain 1: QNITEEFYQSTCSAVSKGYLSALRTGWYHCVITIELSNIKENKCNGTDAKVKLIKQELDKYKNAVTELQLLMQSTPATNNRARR
T1 chain 2: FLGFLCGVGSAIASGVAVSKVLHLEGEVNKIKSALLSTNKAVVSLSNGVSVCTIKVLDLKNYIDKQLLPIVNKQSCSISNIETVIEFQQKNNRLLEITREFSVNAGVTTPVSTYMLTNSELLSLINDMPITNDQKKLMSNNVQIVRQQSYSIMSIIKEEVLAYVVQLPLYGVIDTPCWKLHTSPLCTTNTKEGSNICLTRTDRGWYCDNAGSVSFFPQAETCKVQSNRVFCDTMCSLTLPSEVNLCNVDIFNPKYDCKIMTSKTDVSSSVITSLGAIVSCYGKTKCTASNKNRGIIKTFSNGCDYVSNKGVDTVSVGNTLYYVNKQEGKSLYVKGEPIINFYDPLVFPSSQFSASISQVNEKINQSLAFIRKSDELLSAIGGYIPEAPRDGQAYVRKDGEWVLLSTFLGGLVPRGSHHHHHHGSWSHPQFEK

[2] = molecular target: RSV F protein mutant pXCS780 (RSV A2, UniProt P03420 26-109)
[3] = molecular target: RSV F protein mutant pXCS889 (RSV A2, UniProt P03420 26-109)
[4] = molecular target: T2, RSV F protein mutant pXCS842 (RSV A2, UniProt P03420 26-109)
T2 chain 1: T1 chain 1 with C30S, T78C
T2 chain 2: T1 chain 2 with C6L, I12C, C52L, C235N, Q351E, S353D

[5] = molecular target: RSV F protein mutant pXCS781 (RSV A2, UniProt P03420 26-109)
[6] = molecular target: RSV F protein mutant pXCS779 (RSV A2, UniProt P03420 26-109)
[7] = molecular target: RSV F protein mutant pXCS850 (RSV A2, UniProt P03420 26-109)
[8] = molecular target: T3, RSV F protein mutant pXCS827 (RSV A2, UniProt P03420 26-109)
T3 chain 1: T1 chain 1 with C30S, T78C
T3 chain 2: T1 chain 2 with C6L, I12C, C52L, C235N, S350D, Q351E, S353D

[9] = molecular target: RSV F protein mutant pXCS848 (RSV A2, UniProt P03420 26-109)
[10] = molecular target: RSV F protein mutant pXCS760 (RSV A2, UniProt P03420 26-109)
[11] = molecular target: T4, RSV F protein mutant pXCS734 (RSV A2, UniProt P03420 26-109)
T4 chain 1: T1 chain 1
T4 chain 2: T1 chain 2 with I54S, S350D, Q351E, S353D

Binder | Response (nm shift) [1] | Response (nm shift) [2] | Response (nm shift) [3] | Response (nm shift) [4] | Response (nm shift) [5] | Response (nm shift) [6] | Response (nm shift) [7] | Response (nm shift) [8] | Response (nm shift) [9] | Response (nm shift) [10] | Response (nm shift) [11]
B1 | 0.684 nm | 0.608 nm | 0.889 nm | 0.932 nm | 0.876 nm | 0.232 nm | 1.04 nm | 0.88 nm | 0.266 nm | 0.151 nm | 0.818 nm
B2 | 0.213 nm | 0.29 nm | 0.477 nm | 0.493 nm | 0.423 nm | 0.125 nm | 0.517 nm | 0.45 nm | 0.109 nm | 0.121 nm | 0.284 nm
